The results in this text go back to IntAct's records for PubMed 31515488.

B1: Lymphokine-activated killer T-cell-originated protein kinase (Homo sapiens), Q96KB5 (parent)
chain: MEGISNFKTPSKLSEKKKSVLCSTPTINIPASPFMQKLGFGTGVNVYLMKRSPRGLSHSPWAVKKINPICNDHYRSVYQKRLMDEAKILKSLHHPNIVGYRAFTEANDGSLCLAMEYGGEKSLNDLIEERYKASQDPFPAAIILKVALNMARGLKYLHQEKKLLHGDIKSSNVVIKGDFETIKICDVGVSLPLDENMTVTDPEACYIGTEPWKPKEAVEENGVITDKADIFAFGLTLWEMMTLSIPHINLSNDDDDEDKTFDESDFDDEAYYAALGTRPPINMEELDESYQKVIELFSVCTNEDPKDRPSAAHIVEALETDV
partner: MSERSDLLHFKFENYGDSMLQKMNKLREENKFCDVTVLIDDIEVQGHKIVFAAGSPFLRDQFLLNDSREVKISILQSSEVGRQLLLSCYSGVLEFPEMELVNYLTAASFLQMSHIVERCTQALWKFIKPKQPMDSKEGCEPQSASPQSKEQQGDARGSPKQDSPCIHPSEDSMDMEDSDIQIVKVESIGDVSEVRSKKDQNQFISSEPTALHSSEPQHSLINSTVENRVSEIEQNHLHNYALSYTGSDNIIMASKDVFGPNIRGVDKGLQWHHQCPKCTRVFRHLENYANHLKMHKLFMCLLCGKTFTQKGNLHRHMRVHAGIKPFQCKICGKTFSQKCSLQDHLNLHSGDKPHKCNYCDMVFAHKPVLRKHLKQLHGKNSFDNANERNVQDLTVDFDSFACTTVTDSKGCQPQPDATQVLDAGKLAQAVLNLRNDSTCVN
B2: Zinc finger protein 512B (Homo sapiens), Q96KM6 (parent)
chain: MTDPFCVGGRRLPGSSKSGPGKDGSRKEVRLPMLHDPPKMGMPVVRGGQTVPGQAPLCFDPGSPASDKTEGKKKGRPKAENQALRDIPLSLMNDWKDEFKAHSRVKCPNSGCWLEFPSIYGLKYHYQRCQGGAISDRLAFPCPFCEAAFTSKTQLEKHRIWNHMDRPLPASKPGPISRPVTISRPVGVSKPIGVSKPVTIGKPVGVSKPIGISKPVSVGRPMPVTKAIPVTRPVPVTKPVTVSRPMPVTKAMPVTKPITVTKSVPVTKPVPVTKPITVTKLVTVTKPVPVTKPVTVSRPIVVSKPVTVSRPIAISRHTPPCKMVLLTRSENKAPRATGRNSGKKRAADSLDTCPIPPKQARPENGEYGPSSMGQSSAFQLSADTSSGSLSPGSRPSGGMEALKAAGPASPPEEDPERTKHRRKQKTPKKFTGEQPSISGTFGLKGLVKAEDKARVHRSKKQEGPGPEDARKKVPAAPITVSKEAPAPVAHPAPGGPEEQWQRAIHERGEAVCPTCNVVTRKTLVGLKKHMEVCQKLQDALKCQHCRKQFKSKAGLNYHTMAEHSAKPSDAEASEGGEQEERERLRKVLKQMGRLRCPQEGCGAAFSSLMGYQYHQRRCGKPPCEVDSPSFPCTHCGKTYRSKAGHDYHVRSEHTAPPPEEPTDKSPEAEDPLGVERTPSGRVRRTSAQVAVFHLQEIAEDELARDWTKRRMKDDLVPETARLNYTRPGLPTLNPQLLEAWKNEVKEKGHVNCPNDCCEAIYSSVSGLKAHLASCSKGAHLAGKYRCLLCPKEFSSESGVKYHILKTHAENWFRTSADPPPKHRSQDSLVPKKEKKKNLAGGKKRGRKPKERTPEEPVAKLPPRRDDWPPGCRDKGARGSTGRKVGVSKAPEK
B3: Keratin, type I cytoskeletal 18 (Homo sapiens), P05783 (parent)
chain: MSFTTRSTFSTNYRSLGSVQAPSYGARPVSSAASVYAGAGGSGSRISVSRSTSFRGGMGSGGLATGIAGGLAGMGGIQNEKETMQSLNDRLASYLDRVRSLETENRRLESKIREHLEKKGPQVRDWSHYFKIIEDLRAQIFANTVDNARIVLQIDNARLAADDFRVKYETELAMRQSVENDIHGLRKVIDDTNITRLQLETEIEALKEELLFMKKNHEEEVKGLQAQIASSGLTVEVDAPKSQDLAKIMADIRAQYDELARKNREELDKYWSQQIEESTTVVTTQSAEVGAAETTLTELRRTVQSLEIDLDSMRNLKASLENSLREVEARYALQMEQLNGILLHLESELAQTRAEGQRQAQEYEALLNIKVKLEAEIATYRRLLEDGEDFNLGDALDSSNSMQTIQKTTTRRIVDGKVVSETNDTKVLRH
partner: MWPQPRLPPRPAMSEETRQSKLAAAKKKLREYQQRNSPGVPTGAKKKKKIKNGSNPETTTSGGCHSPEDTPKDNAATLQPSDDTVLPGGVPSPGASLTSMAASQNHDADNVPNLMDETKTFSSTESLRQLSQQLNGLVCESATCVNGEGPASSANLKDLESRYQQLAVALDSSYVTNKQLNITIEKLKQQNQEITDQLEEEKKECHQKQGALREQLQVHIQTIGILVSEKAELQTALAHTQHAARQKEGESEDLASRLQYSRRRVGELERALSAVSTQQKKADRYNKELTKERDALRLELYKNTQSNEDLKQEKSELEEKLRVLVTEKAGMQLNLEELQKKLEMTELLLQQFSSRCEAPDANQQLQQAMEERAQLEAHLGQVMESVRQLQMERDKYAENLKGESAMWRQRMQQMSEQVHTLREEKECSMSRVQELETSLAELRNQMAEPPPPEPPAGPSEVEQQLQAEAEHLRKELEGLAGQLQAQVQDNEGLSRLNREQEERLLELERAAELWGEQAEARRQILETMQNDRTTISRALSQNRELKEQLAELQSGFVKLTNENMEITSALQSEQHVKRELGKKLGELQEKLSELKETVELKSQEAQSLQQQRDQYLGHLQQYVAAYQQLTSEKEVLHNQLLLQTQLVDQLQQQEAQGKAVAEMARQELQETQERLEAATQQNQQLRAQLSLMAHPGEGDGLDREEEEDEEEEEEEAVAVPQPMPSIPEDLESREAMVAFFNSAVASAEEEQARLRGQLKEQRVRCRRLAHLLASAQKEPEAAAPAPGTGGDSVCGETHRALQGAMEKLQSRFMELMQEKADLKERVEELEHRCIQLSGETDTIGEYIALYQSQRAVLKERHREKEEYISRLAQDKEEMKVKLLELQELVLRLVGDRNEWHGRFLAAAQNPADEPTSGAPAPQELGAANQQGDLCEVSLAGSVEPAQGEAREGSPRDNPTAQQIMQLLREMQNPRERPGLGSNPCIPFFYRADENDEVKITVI

The first assay covers variants of B1. Conditions: with zbt26_human ZBTB26, Q9HCK0.
On to MEGISNFKTPSKLSEKKKSVLCSTPTINIPASPFMQKLGFGTGVNVYLMKRSPRGLSHSPWAVKKINPICNDHYRSVYQKRLMDEAKILKSLHHPNIVGYRAFTEASDGSLCLAMEYGGEKSLNDLIEERYKASQDPFPAAIILKVALNMARGLKYLHQEKKLLHGDIKSSNVVIKGDFETIKICDVGVSLPLDENMTVTDPEACYIGTEPWKPKEAVEENGVITDKADIFAFGLTLWEMMTLSIPHINLSNDDDDEDKTFDESDFDDEAYYAALGTRPPINMEELDESYQKVIELFSVCTNEDPKDRPSAAHIVEALETDV [N107S], for which the “effect of a mutation on the interaction” value is “disrupting interaction strength”.

Another assay covers variants of B2. Conditions: with fhl3_human FHL3, Q13643.
fhl3_human FHL3, Q13643, sequence (Q13643 whole entry): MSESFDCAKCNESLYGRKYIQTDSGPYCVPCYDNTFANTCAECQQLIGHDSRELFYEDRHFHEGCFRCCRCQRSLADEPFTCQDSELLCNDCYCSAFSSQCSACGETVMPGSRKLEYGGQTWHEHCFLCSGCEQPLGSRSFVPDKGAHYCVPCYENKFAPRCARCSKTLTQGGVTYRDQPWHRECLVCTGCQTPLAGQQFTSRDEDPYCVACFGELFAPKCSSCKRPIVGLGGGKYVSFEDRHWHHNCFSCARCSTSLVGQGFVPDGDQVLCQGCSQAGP
Regarding A408T, the “effect of a mutation on the interaction” value is listed as “with no effect”.

Regarding A453T, the “effect of a mutation on the interaction” value is “with no effect”.

The next assay covers variants of B2. Conditions: with traf1_human TRAF1, Q13077.
traf1_human TRAF1, Q13077, sequence (Q13077 whole entry): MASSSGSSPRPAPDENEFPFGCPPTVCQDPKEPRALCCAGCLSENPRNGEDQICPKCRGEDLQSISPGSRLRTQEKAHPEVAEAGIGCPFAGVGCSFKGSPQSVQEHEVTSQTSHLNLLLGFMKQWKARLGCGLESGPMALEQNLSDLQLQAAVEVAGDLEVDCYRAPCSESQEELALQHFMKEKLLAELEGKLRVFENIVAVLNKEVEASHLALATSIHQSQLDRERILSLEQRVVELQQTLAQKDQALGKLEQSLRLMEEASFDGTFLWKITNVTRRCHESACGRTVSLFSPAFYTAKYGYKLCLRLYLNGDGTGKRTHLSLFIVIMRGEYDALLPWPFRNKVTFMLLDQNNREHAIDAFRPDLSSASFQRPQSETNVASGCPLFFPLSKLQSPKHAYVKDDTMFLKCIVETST
Regarding A408T, the “effect of a mutation on the interaction” value is “with no effect”. Take A453T: the “effect of a mutation on the interaction” value is given as “with no effect”.

In the next assay the parent is B3. The conditions noted are these: with goga2_human GOLGA2, Q08379.
For the variant MSFTTRSTFSTNYRSLGSVQAPSYGARPVSSAASVYAGAGGSGSRISVSRSTSFRGGMGSGGLATGIAGGLAGMGGIQNEKETMQSLNDRLASYLDRVRSLETENRRLESKIREHLEKKGPQVRDWSHYFKIIEDLRAQIFANTVDNARIVLQIDNARLAADDFRVKYETELAMRQSVENDIHGLRKVIDDTNITRLQLETEIEALKEELLFMKKNHEEEVKGLQAQIATSGLTVEVDAPKSQDLAKIMADIRAQYDELARKNREELDKYWSQQIEESTTVVTTQSAEVGAAETTLTELRRTVQSLEIDLDSMRNLKASLENSLREVEARYALQMEQLNGILLHLESELAQTRAEGQRQAQEYEALLNIKVKLEAEIATYRRLLEDGEDFNLGDALDSSNSMQTIQKTTTRRIVDGKVVSETNDTKVLRH [S230T], the “effect of a mutation on the interaction” value is “with no effect”. For the variant MSFTTRSTFSTNYRSLGSVQAPSYGARPVSSAASVYAGAGGSGSRISVSRSTSFRGGMGSGGLATGIAGGLAGMGGIQNEKETMQSLNDRLASYLDRVRSLETENRRLESKIREHLEKKGPQVRDWSHYFKIIEDLRAQIFANTVDNARIVLQIDNAHLAADDFRVKYETELAMRQSVENDIHGLRKVIDDTNITRLQLETEIEALKEELLFMKKNHEEEVKGLQAQIASSGLTVEVDAPKSQDLAKIMADIRAQYDELARKNREELDKYWSQQIEESTTVVTTQSAEVGAAETTLTELRRTVQSLEIDLDSMRNLKASLENSLREVEARYALQMEQLNGILLHLESELAQTRAEGQRQAQEYEALLNIKVKLEAEIATYRRLLEDGEDFNLGDALDSSNSMQTIQKTTTRRIVDGKVVSETNDTKVLRH [R158H], the “effect of a mutation on the interaction” value is listed as “with no effect”.
